Results on 13 molecules are retold here after patent publication US20130052176, “APTAMER FOR NGF AND USE THEREOF” (SHIONOGI & CO., LTD, published 2013).

What all share (conditions): tags: human NGF; chain copies: 2
The target of data set [1] is T1, NGF (nerve growth factor) (human, UniProt P01138 P01138:122-241). Nature of the data set: cell_activity; neurite outgrowth, NGF 0.38 nM; TF-1 IC50 0.319 nM. How it is done:
(§1) The neurite outgrowth inhibitory activity of the aptamer obtained in Example 1 was evaluated by using Neuroscreen-1 cell, which is a subclone of PC-12 cells.
(§2) The cells (2500 cells per well) were cultured for one day in an RPMI-1640 medium containing 2.5% horse serum and 1.25% fetal bovine serum in a 96 well flat-bottom plate coated with collagen type IV. […] Two days later, the cytoplasm and nuclei were stained using Cellomics Neurite Outgrowth Kit (manufactured by Thermo Scientific), and neurite length per cell was measured by Cellomics ArrayScan VTI (manufactured by Thermo Scientific). With the neurite length per cell obtained by the addition of NGF alone as inhibitory activity 0%, and that of the cell obtained by NGF free culture for 2 days as inhibitory activity 100%, the inhibitory activity of the aptamer was calculated from the neurite length per cell obtained by culturing with the addition of NGF and the aptamer in mixture. When the inhibitory activity was 0% or below, ‘0%’ is indicated.

Data set [2] has as its target T1, NGF (nerve growth factor). The data set is described as follows: cell_activity; neurite outgrowth, NGF 0.38 nM; TF-1 IC50 0.159 nM. The method, then: as §1, §2
In data set [3] the target is T1, NGF (nerve growth factor). The data set is described as follows: cell_activity; neurite outgrowth, NGF 0.38 nM; TF-1 IC50 0.285 nM. How it is done:
as §1, §2

The target of data set [4] is T1, NGF (nerve growth factor). Nature of the data set: cell_activity; neurite outgrowth, NGF 0.38 nM; TF-1 IC50 0.107 nM. The method, then: as §1, §2
In data set [5] the target is T1, NGF (nerve growth factor). Nature of the data set: cell_activity; neurite outgrowth, NGF 0.38 nM; TF-1 IC50 0.100 nM. The method, then: as §1, §2
Data set [6] has as its target T1, NGF (nerve growth factor). Nature of the data set: cell_activity; neurite outgrowth, NGF 0.38 nM; TF-1 IC50 0.131 nM. How it is done:
as §1, §2

The target of data set [7] is T1, NGF (nerve growth factor). Nature of the data set: cell_activity; neurite outgrowth, NGF 0.38 nM; TF-1 IC50 0.074 nM. How it is done: as §1, §2
The target of data set [8] is T1, NGF (nerve growth factor). The data set is described as follows: cell_activity; neurite outgrowth, NGF 0.38 nM; TF-1 IC50 0.104 nM. How it is done:
as §1, §2

Data set [9] concerns the target T1, NGF (nerve growth factor). Nature of the data set: cell_activity; neurite outgrowth, NGF 1.1 nM; TF-1 IC50 1.2 nM. How it is done: as §1, §2
Data set [10] has as its target T1, NGF (nerve growth factor). The data set is described as follows: cell_activity; neurite outgrowth, NGF 1.1 nM; TF-1 IC50 4.2 nM. The method, then:
as §1, §2

For data set [11], the target named is T1, NGF (nerve growth factor). The data set is described as follows: cell_activity; neurite outgrowth, NGF 1.1 nM; TF-1 IC50 1.5 nM. How it is done: as §1, §2
The target of data set [12] is T1, NGF (nerve growth factor). The data set is described as follows: cell_activity; neurite outgrowth, NGF 1.1 nM; TF-1 IC50 7.0 nM. How it is done:
as §1, §2

Data set [13] addresses T1, NGF (nerve growth factor). Nature of the data set: cell_activity; neurite outgrowth, NGF 1.1 nM; TF-1 IC50 1.7 nM. How it is done: as §1, §2

T1 sequence (P01138 122-241, one chain of several): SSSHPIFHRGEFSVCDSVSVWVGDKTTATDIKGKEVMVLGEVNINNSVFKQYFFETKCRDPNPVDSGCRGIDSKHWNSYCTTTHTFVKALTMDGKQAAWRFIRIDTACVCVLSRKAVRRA

B1: aptamer ID 26(70) (ssRNA)
RNA: GGGAGACUCGCCAGAGUUGAAAGAAACCCAAAUAAGUGUGCGCAC
modifications: 5' PEG80TS4 via ssH linker; 3' idT; 2'-F all pyrimidines; 2'-OMe purines except ribo g3,g19,a20,a26
The IC50 is the concentration that inhibits the measured activity by half. Read a high IC50 as lower potency. In data set [1], B1 came in with a half-inhibitory concentration (IC50) of 0.126 nM.

B2: aptamer ID 26(23) (mixed)
RNA: GGGAGACUCGCCAGAGUUGAAAGAAACCCAAAUAAGUGUGCGCAC
modifications: as 26(19) (5' and 3' idT; 2'-F pyrimidines; 2'-OMe purines except ribo g3,g19,a20,a26) but c9 is dC
Consider B2, for which the midpoint of inhibition in data set [2], the IC50, lay at 0.229 nM.

B3: aptamer ID 26(67) (ssRNA)
RNA: GGGAGACUCGCCAGAGUUGAAAGAAACCCAAAUAAGUGUGCGCAC
modifications: 5' PEG40TS2 via ssH linker; 3' idT; 2'-F all pyrimidines; 2'-OMe purines except ribo g3,g19,a20,a26
In turn, B3 displayed an IC50 in data set [3] of 0.153 nM.

B4: aptamer ID 26(58) (mixed)
RNA: GGGAGACUCGCCAGAGUUGAAAGAAACCCAAAUAAGUGUGCGCAC
modifications: 5' and 3' idT; 2'-OMe purines except ribo g3,g19,a20,a26; 2'-F c27,c28,u39,c41; dC29,dC43; other pyrimidines 2'-OMe
With B4, 0.143 nM corresponded to half-maximal inhibition in data set [4] (IC50).

B5: aptamer ID 26(46) (ssRNA)
RNA: GGGAGACUCGCCAGAGUUGAAAGAAACCCAAAUAAGUGUGCGCAC
modifications: 5' and 3' idT; 2'-OMe purines except ribo g3,g19,a20,a26; 2'-OMe c7,u8,c11,c12,u17,u33,c45; other pyrimidines 2'-F
B5 came in with an IC50 in data set [5] of 0.097 nM.

B6: aptamer ID 26(29) (mixed)
RNA: GGGAGACUCGCCAGAGUUGAAAGAAACCCAAAUAAGUGUGCGCAC
modifications: as 26(19) (5' and 3' idT; 2'-F pyrimidines; 2'-OMe purines except ribo g3,g19,a20,a26) but u37 is dT
Regarding B6, in [6], inhibition was half-maximal at 0.138 nM (IC50).

B7: aptamer ID 26(47) (ssRNA)
RNA: GGGAGACUCGCCAGAGUUGAAAGAAACCCAAAUAAGUGUGCGCAC
modifications: 5' and 3' idT; 2'-OMe purines except ribo g3,g19,a20,a26; 2'-OMe c7,c11,c12,u17,u33,u37,c45; other pyrimidines 2'-F
The molecule B7 had an IC50 in data set [7] of 0.065 nM.

B8: aptamer ID 26(19) (ssRNA)
RNA: GGGAGACUCGCCAGAGUUGAAAGAAACCCAAAUAAGUGUGCGCAC
modifications: 5' and 3' idT; 2'-F all pyrimidines; 2'-OMe all purines except ribo g3,g19,a20,a26
The molecule B8 showed an IC50 in data set [8] of less than 0.01 nM.

B9: aptamer ID 57(1) (mixed)
mixed: GGGAUAAAAAUAGAGTUUGATAAACACCUGUAUUAAAACCC
modifications: as ID 57 (5' cholesterol; 3' idT; dT16,dT21; 2'-F other pyrimidines and a37,a38; 2'-OMe purines except ribo a4,a7,g30) plus PS between 15 and 16
B9: the IC50 in data set [9] was less than 3 nM.

B10: aptamer ID 57(4) (mixed)
mixed: GGGAUAAAAAUAGAGTUUGATAAACACCUGUAUUAAAACCC
modifications: as ID 57 (5' cholesterol; 3' idT; dT16,dT21; 2'-F other pyrimidines and a37,a38; 2'-OMe purines except ribo a4,a7,g30) plus PS between 20 and 21
Take B10: the IC50 in data set [10] was less than 3 nM.

B11: aptamer ID 57(3) (mixed)
mixed: GGGAUAAAAAUAGAGTUUGATAAACACCUGUAUUAAAACCC
modifications: as ID 57 (5' cholesterol; 3' idT; dT16,dT21; 2'-F other pyrimidines and a37,a38; 2'-OMe purines except ribo a4,a7,g30) plus PS between 19 and 20
For B11, the IC50 in [11] was less than 3 nM.

B12: aptamer ID 57(9) (mixed)
mixed: GGGAUAAAAAUAGAGTUUGATAAACACCUGUAUUAAAACCC
modifications: as ID 57 (5' cholesterol; 3' idT; dT16,dT21; 2'-F other pyrimidines and a37,a38; 2'-OMe purines except ribo a4,a7,g30) plus PS between 29 and 30
Molecule B12 returned an IC50 in data set [12] of less than 3 nM.

B13: aptamer ID 57(5) (mixed)
mixed: GGGAUAAAAAUAGAGTUUGATAAACACCUGUAUUAAAACCC
modifications: as ID 57 (5' cholesterol; 3' idT; dT16,dT21; 2'-F other pyrimidines and a37,a38; 2'-OMe purines except ribo a4,a7,g30) plus PS between 21 and 22
For the molecule B13, the IC50 in data set [13] is less than 3 nM.
